Assay [1] deals with T1, E. coli sliding clamp (DnaN protein, β subunit of DNA polymerase III) (E. coli, UniProt P0A988 1-366).
T1 construct: Recombinant DnaN for ITC (a tag from pET15b is implied by the Ni-NTA step but not described); also called ^EcSC; SC
Put plainly: ITC, 30 °C, peptide titrated into E. coli SC.

For assay [2], the target named is T2, E. coli 70S ribosome particle (E. coli).
T2 construct: also called ^Ec70S
Briefly: ITC, 30 °C, against the same peptide on E. coli SC. (Isothermal titration calorimetry measures the heat released or taken up as one component is titrated into another.)

Assay [3] has as its target T2, E. coli 70S ribosome particle. Briefly: ITC, 30 °C, peptide titrated into E. coli 70S ribosome.
Assay [4] concerns the target T1, E. coli sliding clamp (DnaN protein, β …). Put plainly: ITC, 30 °C.
For assay [5] the target is unchanged. Briefly: ITC, 25 °C, E. coli SC (beta ring).
Assay [6] has as its target T2, E. coli 70S ribosome particle. Briefly: ITC, 30 °C, peptide titrated into E. coli 70S ribosome; values not well defined (footnote *).
Assay [7] shares this target. Briefly: ITC, E. coli ribosome (70S).
Assay [8] has the same target. Briefly: ITC, 30 °C, against Py on the 70S ribosome.
For assay [9] the target is unchanged. Briefly: ITC, 30 °C as the table's head says, E. coli ribosome.
The target of assay [10] is T3, Human PCNA (Proliferating Cell Nuclear Antigen) (Human, UniProt P12004 1-261).
T3 construct: Source and limits of the construct are not described
T3 sequence (P12004 whole entry): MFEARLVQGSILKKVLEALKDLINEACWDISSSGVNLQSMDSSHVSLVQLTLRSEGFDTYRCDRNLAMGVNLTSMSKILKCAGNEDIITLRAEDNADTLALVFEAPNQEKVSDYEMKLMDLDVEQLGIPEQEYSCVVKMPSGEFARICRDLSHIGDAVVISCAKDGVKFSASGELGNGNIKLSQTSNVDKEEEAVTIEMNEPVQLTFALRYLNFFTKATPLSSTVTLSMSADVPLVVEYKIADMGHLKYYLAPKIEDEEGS
Put plainly: ITC, 30 °C.

For assay [11], the target named is T1, E. coli sliding clamp (DnaN protein, β …). Briefly: ITC, 30 °C, E. coli SC.

Square brackets hold non-standard residues; d marks the D form. Ends that are not written are not given here. * marks the point of attachment. FITC = O=C1OC2(c3ccc(O)cc3Oc3cc(O)ccc32)c2ccc(NC(=S)*)cc21; Cha = N[C@@H](CC1CCCCC1)C(=O)O

T1 sequence (P0A988 whole entry): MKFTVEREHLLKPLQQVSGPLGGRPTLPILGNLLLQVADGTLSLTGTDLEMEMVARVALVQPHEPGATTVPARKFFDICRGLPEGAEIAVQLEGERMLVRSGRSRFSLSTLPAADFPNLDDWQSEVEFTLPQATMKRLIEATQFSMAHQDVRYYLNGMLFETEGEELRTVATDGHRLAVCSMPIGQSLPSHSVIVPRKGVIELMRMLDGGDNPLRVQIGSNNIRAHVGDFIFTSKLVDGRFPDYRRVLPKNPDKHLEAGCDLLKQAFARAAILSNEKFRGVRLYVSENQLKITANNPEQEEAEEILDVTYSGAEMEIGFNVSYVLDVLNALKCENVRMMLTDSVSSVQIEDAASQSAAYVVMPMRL

B1: P116 (Py-P7), …haDLF-OH (peptide)
peptide: VDKGSYLPRPTPPRPIYNRNGPRQ[Cha]DLF-OH
modifications: N-terminus assumed
SMILES: CC[C@H](C)[C@H](NC(=O)[C@@H]1CCCN1C(=O)[C@H](CCCNC(=N)N)NC(=O)[C@@H]1CCCN1C(=O)[C@@H]1CCCN1C(=O)[C@@H](NC(=O)[C@@H]1CCCN1C(=O)[C@H](CCCNC(=N)N)NC(=O)[C@@H]1CCCN1C(=O)[C@H](CC(C)C)NC(=O)[C@H](Cc1ccc(O)cc1)NC(=O)[C@H](CO)NC(=O)CNC(=O)[C@H](CCCCN)NC(=O)[C@H](CC(=O)O)NC(=O)[C@@H](N)C(C)C)[C@@H](C)O)C(=O)N[C@@H](Cc1ccc(O)cc1)C(=O)N[C@@H](CC(N)=O)C(=O)N[C@@H](CCCNC(=N)N)C(=O)N[C@@H](CC(N)=O)C(=O)NCC(=O)N1CCC[C@H]1C(=O)N[C@@H](CCCNC(=N)N)C(=O)N[C@@H](CCC(N)=O)C(=O)N[C@@H](CC1CCCCC1)C(=O)N[C@@H](CC(=O)O)C(=O)N[C@@H](CC(C)C)C(=O)N[C@@H](Cc1ccccc1)C(=O)O
notes: Fusion of pyrrhocoricin, GPR linker and P7
One may read the Kd as a measure of binding affinity in units of concentration. A low value points to higher affinity. Turning to B1, in assay [1], the “-TΔS” value was determined as 4.3 kcal/mol, binding was characterised by a dissociation constant (Kd) of 119 nM, the ΔG is -9.61 kcal/mol and the ΔH was -13.9 kcal/mol. Besides, the “fold higher affinity for the ribosome than for SC” value in [2] is 3 fold. In [3], the “-TΔS” value worked out at 12 kcal/mol, the dissociation constant (Kd) was determined as 37 nM, the ΔG was -10.3 kcal/mol and the ΔH was -22.3 kcal/mol.

B2: P120 (Onc112-P7Scr), VDKPPYLPRPRPPRrIYNrNGPRChaFQLD-OH (peptide)
peptide: VDKPPYLPRPRPPR[dR]IYN[dR]NGPR[Cha]FQLD-OH
notes: Control fusion peptide with scrambled P7; also called Onc112-Scr
For the molecule B2, the binding result in [4] is on record as “no binding”. Also, in assay [3], the “-TΔS” value stood at 3.12 kcal/mol, binding was put at a Kd of 101 nM, the ΔG was -9.85 kcal/mol and the ΔH is -13 kcal/mol.

B3: CM1-76 (P7-Onc112), AcQChaDLF-GPR-Onc112-NH2 (peptide)
peptide: Ac-Q[Cha]DLFGPRVDKPPYLPRPRPPR[dR]IYN[dR]-NH2
SMILES: CC[C@H](C)[C@H](NC(=O)[C@@H](CCCNC(=N)N)NC(=O)[C@H](CCCNC(=N)N)NC(=O)[C@@H]1CCCN1C(=O)[C@@H]1CCCN1C(=O)[C@H](CCCNC(=N)N)NC(=O)[C@@H]1CCCN1C(=O)[C@H](CCCNC(=N)N)NC(=O)[C@@H]1CCCN1C(=O)[C@H](CC(C)C)NC(=O)[C@H](Cc1ccc(O)cc1)NC(=O)[C@@H]1CCCN1C(=O)[C@@H]1CCCN1C(=O)[C@H](CCCCN)NC(=O)[C@H](CC(=O)O)NC(=O)[C@@H](NC(=O)[C@H](CCCNC(=N)N)NC(=O)[C@@H]1CCCN1C(=O)CNC(=O)[C@H](Cc1ccccc1)NC(=O)[C@H](CC(C)C)NC(=O)[C@H](CC(=O)O)NC(=O)[C@H](CC1CCCCC1)NC(=O)[C@H](CCC(N)=O)NC(C)=O)C(C)C)C(=O)N[C@@H](Cc1ccc(O)cc1)C(=O)N[C@@H](CC(N)=O)C(=O)N[C@H](CCCNC(=N)N)C(N)=O
For the molecule B3, in [5], the affinity, expressed as Kd, was 258 nM; the n was 1; the ΔG is -9 kcal/mol; the ΔH is -10.7 kcal/mol.

B4: P150 (FITC-Py-P7), FITC-…haDLF-OH (peptide)
peptide: {FITC}-KVDKGSYLPRPTPPRPIYNRNGPRQ[Cha]DLF-OH
notes: also called FITC-K-Py-P7; CA2-150
Take B4: in [1], the “-TΔS” value is 8.21 kcal/mol, the Kd stood at 390 nM, the ΔG is -8.99 kcal/mol and the ΔH is -17.2 kcal/mol. In assay [6], the “-TΔS” value stood at 6.7 kcal/mol, the ΔG was -6.27 kcal/mol and the ΔH is -13 kcal/mol.

B5: P30 (Onc112-P7), VDKPPYLPRPRPPRrIYNrNGPRQChaDLF-OH (peptide)
peptide: VDKPPYLPRPRPPR[dR]IYN[dR]NGPRQ[Cha]DLF-OH
notes: Fusion of Onc112 and P7; the printed Mw 3472.08 agrees with that N; also called CA3-30; Onc-P7
In assay [5], B5 registered a Kd of 180 nM, a n of 0.9, a ΔG of -9.2 kcal/mol and a ΔH of -14.6 kcal/mol. In addition, in assay [1], the “-TΔS” value amounted to 4.2 kcal/mol, the dissociation constant Kd was found to be 205 nM, the ΔG was -9.28 kcal/mol and the ΔH was -13.5 kcal/mol. For the same molecule, the “fold higher affinity for the ribosome than for SC” value in assay [2] is 3 fold. In assay [3], the “-TΔS” value turned out to be 15.7 kcal/mol, the Kd worked out at 70.4 nM, the ΔG was -9.92 kcal/mol and the ΔH was -25.6 kcal/mol.

B6: Py (Pyrrhocoricin), VDKGSYLPRPTPPRPIYNRN-NH2 (peptide)
peptide: VDKGSYLPRPTPPRPIYNRN-NH2
notes: Bought from Novopro; also called unglycosylated pyrrhocoricin
Regarding B6, the binding result in [4] is given as “no binding”. Further, in assay [3], the “-TΔS” value amounted to 8.23 kcal/mol, the dissociation constant Kd amounted to 15.5 nM, the ΔG was -10.9 kcal/mol and the ΔH was -19.2 kcal/mol.

B7: P28 (Onc112), VDKPPYLPRPRPPRrIYNr-NH2 (peptide)
peptide: VDKPPYLPRPRPPR[dR]IYN[dR]-NH2
notes: also called CA3 28; CA3-28
For B7, the binding result in assay [4] was “no binding”. In assay [7], this molecule showed a Kd of 241 nM, a n of 1, a ΔG of -9.2 kcal/mol and a ΔH of -16.2 kcal/mol. Besides, in [8], the “fold lower affinity than Py” value is 5 fold. In assay [9], this molecule had a dissociation constant Kd of 241 nM, a ΔG of -9.2 kcal/mol and a ΔH of -16.2 kcal/mol. Moreover, in assay [3], the “-TΔS” value stood at 14 kcal/mol, the Kd stood at 84 nM, the ΔG is -9.82 kcal/mol and the ΔH is -23.9 kcal/mol.

B8: P7 (Ac-QChaDLF-OH) (peptide)
peptide: Ac-Q[Cha]DLF-OH
SMILES: CC(=O)N[C@@H](CCC(N)=O)C(=O)N[C@@H](CC1CCCCC1)C(=O)N[C@@H](CC(=O)O)C(=O)N[C@@H](CC(C)C)C(=O)N[C@@H](Cc1ccccc1)C(=O)O
notes: also called CA2 68; AcQXDLF
Consider B8, for which, in assay [10], the binding result was “no binding”. In assay [11], this molecule gave a dissociation constant (Kd) of 408 nM, a n of 1 and a ΔH of -12.1 kcal/mol. In [5], this molecule returned a Kd of 170 nM, a n of 0.9, a ΔG of -9.2 kcal/mol and a ΔH of -15.4 kcal/mol. For the same molecule, in assay [1], the “-TΔS” value was 4.71 kcal/mol, binding was put at a Kd of 332 nM, the ΔG is -9 kcal/mol and the ΔH was -13.7 kcal/mol.

B9: P72 (FITC-Py-P7Scr), FITC-…haFQLD-OH (peptide)
peptide: {FITC}-KVDKGSYLPRPTPPRPIYNRNGPR[Cha]FQLD-OH
notes: also called FITC-K-Py-P7Scr; CA4-72
As to B9, the binding result in assay [4] is on record as “no binding”. For the same molecule, in assay [6], the “-TΔS” value is 2.94 kcal/mol, the ΔG was -5.98 kcal/mol and the ΔH is -8.92 kcal/mol.

B10: P122 (FITC-Py), FITC-KVDKGSYLPRPTPPRPIYNRN-NH2 (peptide)
peptide: {FITC}-KVDKGSYLPRPTPPRPIYNRN-NH2
modifications: ends and bridges not checked
notes: also called FITC-K-Py; FITC-K-Pyr
Take B10: the binding result in assay [4] is “no binding”. In addition, in assay [6], the “-TΔS” value was 13.3 kcal/mol, the ΔG was -6.91 kcal/mol and the ΔH was -20.1 kcal/mol.

Source of the values: patent US20220002344A1 (CENTRE NATIONAL DE LA RECHERCHE SCIENTIFIQUE, published 2022).
